{
  "source": "paper PMC12622350",
  "data": [
    {"molecular_target": "T1, NikR (Helicobacter pylori 26695) (UniProt O25896)", "T1 sequence": "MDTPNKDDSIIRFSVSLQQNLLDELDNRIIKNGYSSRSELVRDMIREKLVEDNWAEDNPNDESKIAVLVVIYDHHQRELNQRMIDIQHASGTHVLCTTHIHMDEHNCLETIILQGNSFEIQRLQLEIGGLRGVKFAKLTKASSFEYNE", "assay": "EMSA", "values": [
      {"sequence": "TTGGGTTGATTTAACTCAAGCAAATTTTCTTCAATCCTAACAAATTTGGCTGCAAATTAAAAAATTTAAGCTTTTTTCTTTTTTTTTGATTTAATACTAGGTATAATTTTAATTCCACCT (double strand) [Probe-flgR 1]", "binding": "binds"},
      {"sequence": "TAGCAATGTTTTGATTTACTAAGATTAACAGAAGCGTTCATTAACTAATTATTATTTAAAATGAATTAGTGTTATATCTTTGAAGCGCTATAAAATCGTTATTAGAAGTGCGTTTAATAC (double strand) [OPhp0073]", "binding": "binds"},
      {"sequence": "TAAGCTTTTTTCTTTTTTTTTGATTTAATACTAGGTATAATTTTAATTCCACCTAACAAGGAAAAGCTATGAAAGTAACACAAGGCATTGCTAACGACTTTTTTGCCCTAACAAACACGA (double strand) [Probe-flgR 2]", "binding": "binds"}
    ]}
  ]
}
